Publication PMC11213948 (2024)

B1: Xpress-His G5_(845–1287) [not stated] / G5_(1–1508)-FLAG [not stated] (parent complex)
chain 1: ARSLLPLSTSLDHRSKEELHQDCLVLATAKHSRELNEDVSADVEERFHLGLFTDRATLYRMIDIEGKGHLENGHPELFHQLMLWKGDLKGVLQTAAERGELTDNLVAMAPAAGYHVWLWAVEAFAKQLCFQDQYVKAASHLLSIHKVYEAVELLKSNHFYREAIAIAKARLRPEDPVLKDLYLSWGTVLERDGHYAVAAKCYLGATCAYDAAKVLAKKGDAASLRTAAELAAIVGEDELSASLALRCAQELLLANNWVGAQEALQLHESLQGQRLVFCLLELLSRHLEEKQLSEGKSSSSYHTWNTGTEGPFVERVTAVWKSIFSLDTPEQYQEAFQKLQNIKYPSATNNTPAKQLLLHICHDLTLAVLSQQMASWDEAVQALLRAVVRSYDSGSFTIMQEVYSAFLPDGCDHLRDKLGDHQSPATPAFKSLEAFFLYGRLYE
chain 2: MGQEPRTLPPSPNWYCARCSDAVPGGLFGFAARTSVFLVRVGPGAGESPGTPPFRVIGELVGHTERVSGFTFSHHPGQYNLCATSSDDGTVKIWDVETKTVVTEHALHQHTISTLHWSPRVKDLIVSGDEKGVVFCYWFNRNDSQHLFIEPRTIFCLTCSPHHEDLVAIGYKDGIVVIIDISKKGEVIHRLRGHDDEIHSIAWCPLPGEDCLSINQEETSEEAEITNGNAVAQAPVTKGCYLATGSKDQTIRIWSCSRGRGVMILKLPFLKRRGGGIDPTVKERLWLTLHWPSNQPTQLVSSCFGGELLQWDLTQSWRRKYTLFSASSEGQNHSRIVFNLCPLQTEDDKQLLLSTSMDRDVKCWDIATLECSWTLPSLGGFAYSLAFSSVDIGSLAIGVGDGMIRVWNTLSIKNNYDVKNFWQGVKSKVTALCWHPTKEGCLAFGTDDGKVGLYDTYSNKPPQISSTYHKKTVYTLAWGPPVPPMSLGGEGDRPSLALYSCGGEGIVLQHNPWKLSGEAFDINKLIRDTNSIKYKLPVHTEISWKADGKIMALGNEDGSIEIFQIPNLKLICTIQQHHKLVNTISWHHEHGSQPELSYLMASGSNNAVIYVHNLKTVIESSPESPVTITEPYRTLSGHTAKITSVAWSPHHDGRLVSASYDGTAQVWDALREEPLCNFRGHRGRLLCVAWSPLDPDCIYSGADDFCVHKWLTSMQDHSRPPQGKKSIELEKKRLSQPKAKPKKKKKPTLRTPVKLESIDGNEEESMKENSGPVENGVSDQEGEEQAREPELPCGLAPAVSREPVICTPVSSGFEKSKVTINNKVILLKKEPPKEKPETLIKKRKARSLLPLSTSLDHRSKEELHQDCLVLATAKHSRELNEDVSADVEERFHLGLFTDRATLYRMIDIEGKGHLENGHPELFHQLMLWKGDLKGVLQTAAERGELTDNLVAMAPAAGYHVWLWAVEAFAKQLCFQDQYVKAASHLLSIHKVYEAVELLKSNHFYREAIAIAKARLRPEDPVLKDLYLSWGTVLERDGHYAVAAKCYLGATCAYDAAKVLAKKGDAASLRTAAELAAIVGEDELSASLALRCAQELLLANNWVGAQEALQLHESLQGQRLVFCLLELLSRHLEEKQLSEGKSSSSYHTWNTGTEGPFVERVTAVWKSIFSLDTPEQYQEAFQKLQNIKYPSATNNTPAKQLLLHICHDLTLAVLSQQMASWDEAVQALLRAVVRSYDSGSFTIMQEVYSAFLPDGCDHLRDKLGDHQSPATPAFKSLEAFFLYGRLYEFWWSLSRPCPNSSVWVRAGHRTLSVEPSQQLDTASTEETDPETSQPEPNRPSELDLRLTEEGERMLSTFKELFSEKHASLQNSQRTVAEVQETLAEMIRQHQKSQLCKSTANGPDKNEPEVEAEQPLCSSQSQCKEEKNEPLSLPELTKRLTEANQRMAKFPESIKAWPFPDVLECCLVLLLIRSHFPGCLAQEMQQQAQELLQKYGNTKTYRRHCQTFCM
B2: Xpress-His G5_(1–1287) [not stated] / G5_(1–1508)-FLAG [not stated] (parent complex)
chain 1: MGQEPRTLPPSPNWYCARCSDAVPGGLFGFAARTSVFLVRVGPGAGESPGTPPFRVIGELVGHTERVSGFTFSHHPGQYNLCATSSDDGTVKIWDVETKTVVTEHALHQHTISTLHWSPRVKDLIVSGDEKGVVFCYWFNRNDSQHLFIEPRTIFCLTCSPHHEDLVAIGYKDGIVVIIDISKKGEVIHRLRGHDDEIHSIAWCPLPGEDCLSINQEETSEEAEITNGNAVAQAPVTKGCYLATGSKDQTIRIWSCSRGRGVMILKLPFLKRRGGGIDPTVKERLWLTLHWPSNQPTQLVSSCFGGELLQWDLTQSWRRKYTLFSASSEGQNHSRIVFNLCPLQTEDDKQLLLSTSMDRDVKCWDIATLECSWTLPSLGGFAYSLAFSSVDIGSLAIGVGDGMIRVWNTLSIKNNYDVKNFWQGVKSKVTALCWHPTKEGCLAFGTDDGKVGLYDTYSNKPPQISSTYHKKTVYTLAWGPPVPPMSLGGEGDRPSLALYSCGGEGIVLQHNPWKLSGEAFDINKLIRDTNSIKYKLPVHTEISWKADGKIMALGNEDGSIEIFQIPNLKLICTIQQHHKLVNTISWHHEHGSQPELSYLMASGSNNAVIYVHNLKTVIESSPESPVTITEPYRTLSGHTAKITSVAWSPHHDGRLVSASYDGTAQVWDALREEPLCNFRGHRGRLLCVAWSPLDPDCIYSGADDFCVHKWLTSMQDHSRPPQGKKSIELEKKRLSQPKAKPKKKKKPTLRTPVKLESIDGNEEESMKENSGPVENGVSDQEGEEQAREPELPCGLAPAVSREPVICTPVSSGFEKSKVTINNKVILLKKEPPKEKPETLIKKRKARSLLPLSTSLDHRSKEELHQDCLVLATAKHSRELNEDVSADVEERFHLGLFTDRATLYRMIDIEGKGHLENGHPELFHQLMLWKGDLKGVLQTAAERGELTDNLVAMAPAAGYHVWLWAVEAFAKQLCFQDQYVKAASHLLSIHKVYEAVELLKSNHFYREAIAIAKARLRPEDPVLKDLYLSWGTVLERDGHYAVAAKCYLGATCAYDAAKVLAKKGDAASLRTAAELAAIVGEDELSASLALRCAQELLLANNWVGAQEALQLHESLQGQRLVFCLLELLSRHLEEKQLSEGKSSSSYHTWNTGTEGPFVERVTAVWKSIFSLDTPEQYQEAFQKLQNIKYPSATNNTPAKQLLLHICHDLTLAVLSQQMASWDEAVQALLRAVVRSYDSGSFTIMQEVYSAFLPDGCDHLRDKLGDHQSPATPAFKSLEAFFLYGRLYE
chain 2: B1 chain 2
B3: Xpress-His G5_(845–1508) [not stated] / G5_(1–1508)-FLAG [not stated] (parent complex)
chain 1: ARSLLPLSTSLDHRSKEELHQDCLVLATAKHSRELNEDVSADVEERFHLGLFTDRATLYRMIDIEGKGHLENGHPELFHQLMLWKGDLKGVLQTAAERGELTDNLVAMAPAAGYHVWLWAVEAFAKQLCFQDQYVKAASHLLSIHKVYEAVELLKSNHFYREAIAIAKARLRPEDPVLKDLYLSWGTVLERDGHYAVAAKCYLGATCAYDAAKVLAKKGDAASLRTAAELAAIVGEDELSASLALRCAQELLLANNWVGAQEALQLHESLQGQRLVFCLLELLSRHLEEKQLSEGKSSSSYHTWNTGTEGPFVERVTAVWKSIFSLDTPEQYQEAFQKLQNIKYPSATNNTPAKQLLLHICHDLTLAVLSQQMASWDEAVQALLRAVVRSYDSGSFTIMQEVYSAFLPDGCDHLRDKLGDHQSPATPAFKSLEAFFLYGRLYEFWWSLSRPCPNSSVWVRAGHRTLSVEPSQQLDTASTEETDPETSQPEPNRPSELDLRLTEEGERMLSTFKELFSEKHASLQNSQRTVAEVQETLAEMIRQHQKSQLCKSTANGPDKNEPEVEAEQPLCSSQSQCKEEKNEPLSLPELTKRLTEANQRMAKFPESIKAWPFPDVLECCLVLLLIRSHFPGCLAQEMQQQAQELLQKYGNTKTYRRHCQTFCM
chain 2: B1 chain 2

Variants of: B1
Test: pull-down; HEK293 cell lysates; western blot with anti-FLAG and anti-Xpress; read off a plot

Variant | response
chain 1 ARSLLPLSTSLDHRSKEELHQDCLVLATAKHSRELNEDVSADVEERFHLGLFTDRATLYRMIDIEGKGHLENGHPELFHQLMLWKGDLKGVLQTAAERGELTDNLVEMAPAAGYHVWLWAVEAFAKQLCFQDQYVKAASHLLSIHKVYEAVELLKSNHFYREAIAIAKARLRPEDPVLKDLYLSWGTVLERDGHYAVAAKCYLGATCAYDAAKVLAKKGDAASLRTAAELAAIVGEDELSASLALRCAQELLLANNWVGAQEALQLHESLQGQRLVFCLLELLSRHLEEKQLSEGKSSSSYHTWNTGTEGPFVERVTAVWKSIFSLDTPEQYQEAFQKLQNIKYPSATNNTPAKQLLLHICHDLTLAVLSQQMASWDEAVQALLRAVVRSYDSGSFTIMQEVYSAFLPDGCDHLRDKLGDHQSPATPAFKSLEAFFLYGRLYE [chain 1 A107E] | ~0.33 relative intensity (PD/In)

Variants of: B2
Test: pull-down; HEK293 cell lysates; western blot with anti-FLAG and anti-Xpress; n = 5; read off a plot

Variant | response
chain 1 A951E | ~0.29 relative intensity (PD/In)

Variants of: B3
Test: pull-down; HEK293 cell lysates; western blot with anti-FLAG and anti-Xpress; n = 3; read off a plot

Variant | response
chain 1 A107E | ~0.38 relative intensity (PD/In)
